Publication PMC11461925 (2024)

Biological target: Wu-1-RBD-I53-50A (SARS-CoV-2, UniProt P0DTC2 328-531)
Experiment: BLI

B1: LY-CoV555 Fab (Fab, V domains shown)
VH: QVQLVQSGAEVKKPGSSVKVSCKASGGTFSNYAISWVRQAPGQGLEWMGRIIPILGIANYAQKFQGRVTITADKSTSTAYMELSSLRSEDTAVYYCARGYYEARHYYYYYAMDVWGQGTAVTVSS
VL: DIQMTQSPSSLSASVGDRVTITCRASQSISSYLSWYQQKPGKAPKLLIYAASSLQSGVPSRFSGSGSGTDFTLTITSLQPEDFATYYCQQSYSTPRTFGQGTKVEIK
Kd: 26.9 nM
